For one substance, Kd, koff and kon results are on record in paper PMC2877007.

pKd: −log10 of the molar value.

The target of the assay is Epidermal Growth Factor Receptor (EGFR) (human (endogenous in A431)) (UniProt P00533). The assay is described as follows: parameter fitting of an ODE model (PottersWheel) and a stochastic simulation (SPS) to immunogold electron microscopy counts; estimated constants; adaptor immunogold label on plasma membrane sheets of A431 cells over a time course of EGF, 20 nM EGF in the model; docking rate multiplied by a scaling factor f and adjusted to match the data.

As for “Stat5 (from UniProt P42229 1-794) (natural protein)”, the pKd (commonly −log10 of the Kd, conventionally taken in molar units) was 5.67; the koff (usually the rate constant with which the complex falls apart) is 11.7 s⁻¹; the kon – broadly, a measure of how fast the partners come together – was 5.5e+06 M⁻¹ s⁻¹.
